Laboratory results as given in patent publication US20230165938A1.
One block for each molecule: values may come before it.

Assays:
Test in all cases: cell-based or functional assay
[1] = biological target: wildtype human rod opsin (human) (UniProt P08100)
[2] = biological target: wildtype human rod opsin (human) (UniProt P08100); remark: listed apart in the source
[3] = biological target: phosphonull Rod opsin 6A mutant (human) (UniProt P08100)

- Response decay (best fit Toff) of the light-driven BRET G protein (Go) activation response in Hek293T cells, arrestin co-expressed without GRK1, relative to RodWT alone (% of RodWT level) [1]: 90
- Response decay rate of the BRET G protein activation light response, arrestin and GRK1 both co-expressed with RodWT, relative to RodWT alone [1]: 2.5 x faster
- Toff of the BRET G protein activation light response, arrestin and GRK1 both co-expressed with RodWT (RodWT alone 166.16) [1]: 65.6 s
Molecule: wildtype human visual arrestin (from UniProt P10523 1-405)

- Response amplitude (A) of the BRET G protein activation light response, GRK1 (or GRK1+Arr) co-expressed with RodWT (% of RodWT amplitude) [2]: 25
- Response amplitude (A) of the BRET G protein activation light response, GRK1 only co-expressed with Rod6A (scaling factor A) [3]: 0.42
B1: human rhodopsin kinase (G protein receptor kinase 1) (enzyme, UniProt Q15835 1-560, looked up)
chain: MDFGSLETVVANSAFIAARGSFDGSSSQPSRDKKYLAKLKLPPLSKCESLRDSLSLEFESVCLEQPIGKKLFQQFLQSAEKHLPALELWKDIEDYDTADNDLQPQKAQTILAQYLDPQAKLFCSFLDEGIVAKFKEGPVEIQDGLFQPLLQATLAHLGQAPFQEYLGSLYFLRFLQWKWLEAQPMGEDWFLDFRVLGKGGFGEVSACQMKATGKLYACKKLNKKRLKKRKGYQGAMVEKKILMKVHSRFIVSLAYAFETKADLCLVMTIMNGGDIRYHIYNVNEENPGFPEPRALFYTAQIICGLEHLHQRRIVYRDLKPENVLLDNDGNVRISDLGLAVELLDGQSKTKGYAGTPGFMAPELLQGEEYDFSVDYFALGVTLYEMIAARGPFRARGEKVENKELKHRIISEPVKYPDKFSQASKDFCEALLEKDPEKRLGFRDETCDKLRAHPLFKDLNWRQLEAGMLMPPFIPDSKTVYAKDIQDVGAFSTVKGVAFDKTDTEFFQEFATGNCPIPWQEEMIETGIFGELNVWRSDGQMPDDMKGISGGSSSSSKSGMC
